Data published in paper PMC5760527 (2018).

Biological target: Cx43 EL1 peptide extracellular loop 1 (EL1) (Mus musculus, UniProt P23242)
Experiment: SPR

Chain of Cx43 EL1 peptide extracellular loop 1 (EL1) (P23242 45-76): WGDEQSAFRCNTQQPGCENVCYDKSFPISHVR

Kd: 20 µM
B1: P4 peptide (Cx43 mimetic) (peptide)
chain: QPGCEN
